# Data: patent publication US20220010021A1 (Sanofi, published 2022)
# Residue numbers refer to the chain shown, from its start. Numbers in names are those of the source.
# T1: human beta-Klotho (KLB) (human, UniProt Q86Z14 53-997)
# T1 construct: also called human KLB
# T1 sequence (looked up): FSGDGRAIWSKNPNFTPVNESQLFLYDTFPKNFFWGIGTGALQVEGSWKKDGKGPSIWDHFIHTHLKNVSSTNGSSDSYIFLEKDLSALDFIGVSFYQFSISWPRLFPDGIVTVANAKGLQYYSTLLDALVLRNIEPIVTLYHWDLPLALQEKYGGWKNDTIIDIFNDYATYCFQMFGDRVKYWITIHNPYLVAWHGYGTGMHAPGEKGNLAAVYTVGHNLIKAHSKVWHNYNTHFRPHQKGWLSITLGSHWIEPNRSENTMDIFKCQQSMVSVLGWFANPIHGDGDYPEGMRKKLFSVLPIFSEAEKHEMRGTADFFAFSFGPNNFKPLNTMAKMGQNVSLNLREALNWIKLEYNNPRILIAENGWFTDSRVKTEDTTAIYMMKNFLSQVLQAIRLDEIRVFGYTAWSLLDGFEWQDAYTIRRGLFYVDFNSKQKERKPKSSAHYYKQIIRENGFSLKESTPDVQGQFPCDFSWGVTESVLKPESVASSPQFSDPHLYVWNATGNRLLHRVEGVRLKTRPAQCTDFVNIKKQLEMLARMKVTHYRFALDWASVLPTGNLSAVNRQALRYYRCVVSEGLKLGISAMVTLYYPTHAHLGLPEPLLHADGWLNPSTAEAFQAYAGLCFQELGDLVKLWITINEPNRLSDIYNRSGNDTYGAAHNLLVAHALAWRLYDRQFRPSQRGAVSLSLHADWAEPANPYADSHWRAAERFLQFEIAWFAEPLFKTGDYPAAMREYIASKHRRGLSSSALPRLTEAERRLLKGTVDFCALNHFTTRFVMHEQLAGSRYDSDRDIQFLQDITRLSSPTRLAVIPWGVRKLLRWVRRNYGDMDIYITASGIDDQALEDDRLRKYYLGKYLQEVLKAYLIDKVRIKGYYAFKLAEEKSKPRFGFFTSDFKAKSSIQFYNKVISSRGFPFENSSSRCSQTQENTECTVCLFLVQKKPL
# B1: 16H7 variant, light chain N26T (antibody, human IgG4 S228P, lambda, V domains shown)
# VH: not shown
# VL: SYVLTQPPSVSVAPGQTARITCGGNTIGSESVHWYQQKPGQAPVLVVYDDSDRPSGIPERFSGSNSGNTATLTISRVEAGDEADYYCQVWDGNSDHVVFGGGTKLTVLG
# notes: IgG4 backbone
# B2: 16H7 light chain variant D49R (antibody, IgG4, V domains shown)
# VH: not shown
# VL: B1 VL with T26N, D49R
# B3: 16H7 light chain variant D49C (antibody, IgG4, V domains shown)
# VH: not shown
# VL: B1 VL with T26N, D49C
# B4: 16H7 light chain variant V97K (antibody, IgG4, V domains shown)
# VH: not shown
# VL: B1 VL with T26N, V97K
# B5: 16H7 light chain variant D50P (antibody, IgG4, V domains shown)
# VH: not shown
# VL: B1 VL with T26N, D50P
# B6: 16H7 light chain variant V97R (antibody, IgG4, V domains shown)
# VH: not shown
# VL: B1 VL with T26N, V97R
# B7: 16H7 light chain variant V97G (antibody, IgG4, V domains shown)
# VH: not shown
# VL: B1 VL with T26N, V97G
# B8: 16H7 light chain variant V97P (antibody, IgG4, V domains shown)
# VH: not shown
# VL: B1 VL with T26N, V97P
# B9: 16H7 light chain variant D49P (antibody, IgG4, V domains shown)
# VH: not shown
# VL: B1 VL with T26N, D49P
# B10: 16H7 light chain variant V97S (antibody, IgG4, V domains shown)
# VH: not shown
# VL: B1 VL with T26N, V97S
# B11: 16H7 light chain variant D49L (antibody, IgG4, V domains shown)
# VH: not shown
# VL: B1 VL with T26N, D49L
# B12: 16H7 light chain variant D49M (antibody, IgG4, V domains shown)
# VH: not shown
# VL: B1 VL with T26N, D49M
# B13: 16H7 light chain variant D49T (antibody, IgG4, V domains shown)
# VH: not shown
# VL: B1 VL with T26N, D49T
# B14: 16H7 light chain variant H96P (antibody, IgG4, V domains shown)
# VH: not shown
# VL: B1 VL with T26N, H96P
# B15: 16H7 light chain variant V97D (antibody, IgG4, V domains shown)
# VH: not shown
# VL: B1 VL with T26N, V97D
# B16: 16H7 light chain variant D49F (antibody, IgG4, V domains shown)
# VH: not shown
# VL: B1 VL with T26N, D49F
# B17: 16H7 light chain variant V97E (antibody, IgG4, V domains shown)
# VH: not shown
# VL: B1 VL with T26N, V97E
# B18: 16H7 light chain variant D49K (antibody, IgG4, V domains shown)
# VH: not shown
# VL: B1 VL with T26N, D49K
# B19: 16H7 light chain variant V97H (antibody, IgG4, V domains shown)
# VH: not shown
# VL: B1 VL with T26N, V97H
# B20: 16H7 light chain variant D49I (antibody, IgG4, V domains shown)
# VH: not shown
# VL: B1 VL with T26N, D49I
# B21: 16H7 light chain variant D49V (antibody, IgG4, V domains shown)
# VH: not shown
# VL: B1 VL with T26N, D49V
# B22: 16H7 light chain variant V97A (antibody, IgG4, V domains shown)
# VH: not shown
# VL: B1 VL with T26N, V97A
# B23: 16H7 variant, light chain R53V (antibody, human IgG4 S228P, lambda, V domains shown)
# VH: not shown
# VL: B1 VL with T26N, R53V
# B24: 16H7 variant, light chain D52G (antibody, human IgG4 S228P, lambda, V domains shown)
# VH: not shown
# VL: B1 VL with T26N, D52G
# notes: IgG4 backbone
# B25: 16H7 variant, light chain D52F (antibody, human IgG4 S228P, lambda, V domains shown)
# VH: not shown
# VL: B1 VL with T26N, D52F
# notes: IgG4 backbone
# B26: 16H7 variant, light chain R53N (antibody, human IgG4 S228P, lambda, V domains shown)
# VH: not shown
# VL: B1 VL with T26N, R53N
# B27: 16H7 variant with light chain substitution S55A (antibody, V domains shown)
# VH: not shown
# VL: B1 VL with T26N, S55A
# B28: 16H7 variant, light chain N25F (antibody, human IgG4 S228P, lambda, V domains shown)
# VH: not shown
# VL: B1 VL with N25F, T26N
# B29: 16H7 variant with light chain substitution P54A (antibody, V domains shown)
# VH: not shown
# VL: B1 VL with T26N, P54A
# B30: 16H7 variant, light chain D52E (antibody, human IgG4 S228P, lambda, V domains shown)
# VH: not shown
# VL: B1 VL with T26N, D52E
# notes: IgG4 backbone
# B31: 16H7 variant with light chain substitution R53V (antibody, V domains shown)
# VH: not shown
# VL: B1 VL with T26N, R53V
# B32: 16H7 variant, light chain Q88S (antibody, human IgG4 S228P, lambda, V domains shown)
# VH: not shown
# VL: B1 VL with T26N, Q88S
# B33: 16H7 variant, light chain D52A (antibody, human IgG4 S228P, lambda, V domains shown)
# VH: not shown
# VL: B1 VL with T26N, D52A
# notes: IgG4 backbone
# B34: 16H7 variant with light chain substitution R53N (antibody, V domains shown)
# VH: not shown
# VL: B1 VL with T26N, R53N
# B35: 16H7 light chain variant G28V (antibody, human IgG4 S228P, lambda, V domains shown)
# VH: not shown
# VL: B1 VL with T26N, G28V
# B36: 16H7 light chain variant S29Y (antibody, human IgG4 S228P, lambda, V domains shown)
# VH: not shown
# VL: B1 VL with T26N, S29Y
# B37: 16H7 variant, light chain S55A (antibody, human IgG4 S228P, lambda, V domains shown)
# VH: not shown
# VL: B1 VL with T26N, S55A
# B38: 16H7 light chain variant G28Q (antibody, human IgG4 S228P, lambda, V domains shown)
# VH: not shown
# VL: B1 VL with T26N, G28Q
# B39: 16H7 variant with light chain substitution S51F (antibody, V domains shown)
# VH: not shown
# VL: B1 VL with T26N, S51F
# B40: 16H7 variant, light chain G24P (antibody, human IgG4 S228P, lambda, V domains shown)
# VH: not shown
# VL: B1 VL with G24P, T26N
# B41: 16H7 variant, light chain P54A (antibody, human IgG4 S228P, lambda, V domains shown)
# VH: not shown
# VL: B1 VL with T26N, P54A
# B42: 16H7 variant, light chain D52H (antibody, human IgG4 S228P, lambda, V domains shown)
# VH: not shown
# VL: B1 VL with T26N, D52H
# notes: IgG4 backbone
# Assays:
# [1] = target: T1, human beta-Klotho (KLB); test: BLI off-rate screen (Octet), Ab captured via Fc;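 note: antibody supernatants applied at 25 µg/mL, dissociation monitored over 1800 s in D-PBS with 0.1% BSA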
# [2] = target: human FGFR1c/KLB cell surface receptor complex on iLite FGF21 reporter cells (human, UniProt P11362 22-822; Q86Z14 1-1044); test: cell-based or functional assay
# [3] = target: cell surface receptor composed of FGFR1c and co-receptor beta-Klotho (KLB) (human, UniProt P11362 22-822; Q86Z14 1-1044); test: cell-based or functional assay
# Target sequence in this assay (P11362 22-822, chain 1 of 2): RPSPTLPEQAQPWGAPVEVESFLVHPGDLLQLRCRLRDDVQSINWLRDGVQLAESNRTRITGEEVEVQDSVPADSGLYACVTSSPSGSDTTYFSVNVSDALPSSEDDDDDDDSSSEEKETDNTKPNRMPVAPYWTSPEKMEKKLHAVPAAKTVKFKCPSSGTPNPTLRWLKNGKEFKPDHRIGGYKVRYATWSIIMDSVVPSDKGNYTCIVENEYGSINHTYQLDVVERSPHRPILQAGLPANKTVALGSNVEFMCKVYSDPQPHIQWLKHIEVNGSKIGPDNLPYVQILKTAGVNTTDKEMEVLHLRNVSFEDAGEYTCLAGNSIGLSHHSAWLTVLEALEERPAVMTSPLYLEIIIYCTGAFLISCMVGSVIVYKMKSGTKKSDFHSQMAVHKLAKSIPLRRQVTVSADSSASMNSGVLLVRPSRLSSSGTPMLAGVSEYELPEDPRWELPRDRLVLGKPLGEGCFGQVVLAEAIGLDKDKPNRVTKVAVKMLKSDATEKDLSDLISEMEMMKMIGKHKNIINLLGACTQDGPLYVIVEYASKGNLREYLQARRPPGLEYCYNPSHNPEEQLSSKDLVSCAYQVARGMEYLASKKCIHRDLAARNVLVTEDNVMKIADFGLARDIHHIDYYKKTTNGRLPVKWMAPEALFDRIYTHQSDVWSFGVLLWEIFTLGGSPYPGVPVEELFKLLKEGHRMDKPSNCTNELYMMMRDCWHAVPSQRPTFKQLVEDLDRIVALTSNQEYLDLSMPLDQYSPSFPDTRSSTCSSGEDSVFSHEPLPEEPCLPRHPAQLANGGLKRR
# Target sequence in this assay (Q86Z14 whole entry, chain 2 of 2): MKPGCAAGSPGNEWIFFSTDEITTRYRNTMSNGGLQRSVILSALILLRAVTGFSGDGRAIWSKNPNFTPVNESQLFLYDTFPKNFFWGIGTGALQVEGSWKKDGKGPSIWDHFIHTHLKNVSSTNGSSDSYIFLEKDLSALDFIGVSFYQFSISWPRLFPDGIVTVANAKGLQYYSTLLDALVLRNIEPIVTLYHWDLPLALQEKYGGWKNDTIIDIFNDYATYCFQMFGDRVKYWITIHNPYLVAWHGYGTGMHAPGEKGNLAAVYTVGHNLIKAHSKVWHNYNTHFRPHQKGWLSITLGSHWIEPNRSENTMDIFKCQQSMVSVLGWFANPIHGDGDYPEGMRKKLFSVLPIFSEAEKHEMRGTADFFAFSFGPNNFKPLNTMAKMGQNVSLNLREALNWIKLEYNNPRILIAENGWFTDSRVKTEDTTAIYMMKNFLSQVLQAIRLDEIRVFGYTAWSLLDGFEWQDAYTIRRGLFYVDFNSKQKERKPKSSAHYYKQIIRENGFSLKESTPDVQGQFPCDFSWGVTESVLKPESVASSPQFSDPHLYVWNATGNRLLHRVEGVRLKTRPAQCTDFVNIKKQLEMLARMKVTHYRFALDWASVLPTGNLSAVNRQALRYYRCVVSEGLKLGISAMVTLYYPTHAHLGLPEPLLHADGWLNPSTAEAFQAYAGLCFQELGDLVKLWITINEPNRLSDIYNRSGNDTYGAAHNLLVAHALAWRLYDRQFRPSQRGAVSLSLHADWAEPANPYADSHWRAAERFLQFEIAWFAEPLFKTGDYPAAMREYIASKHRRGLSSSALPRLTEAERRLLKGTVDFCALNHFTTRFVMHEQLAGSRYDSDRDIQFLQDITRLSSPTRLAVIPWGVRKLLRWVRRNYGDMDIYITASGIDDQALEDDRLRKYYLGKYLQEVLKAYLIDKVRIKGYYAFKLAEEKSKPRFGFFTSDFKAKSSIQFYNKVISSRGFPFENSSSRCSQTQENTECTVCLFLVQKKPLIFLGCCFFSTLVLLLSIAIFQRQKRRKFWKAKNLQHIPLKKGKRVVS
# [4] = target: human FGFR1c/KLB receptor complex on iLite FGF21 Assay Ready Cells (human, UniProt P11362 22-822; Q86Z14 1-1044); test: cell-based or functional assay
# [5] = target: cell surface receptor composed of FGFR1c and co-receptor beta-Klotho (KLB) (human, UniProt P11362 22-822; Q86Z14 1-1044); test: cell-based or functional assay; remark: listed apart in the source
# Target sequence in this assay (P11362 22-822, chain 1 of 2): as the sequence (P11362 22-822, chain 1 of 2) above
# Target sequence in this assay (Q86Z14 whole entry, chain 2 of 2): as the sequence (Q86Z14 whole entry, chain 2 of 2) above
# Throughout, for Mean E max (%): reference of the scale not given here.
# Throughout, for Mean E max, Luciferase reporter gene assay: reference of the scale not given here.
# human FGFR1c/KLB receptor complex on iLite FGF21 Assay Ready Cells, sequence (P11362 22-822, chain 1 of 2): as the sequence (P11362 22-822, chain 1 of 2) above
# human FGFR1c/KLB receptor complex on iLite FGF21 Assay Ready Cells, sequence (Q86Z14 whole entry, chain 2 of 2): as the sequence (Q86Z14 whole entry, chain 2 of 2) above
# human FGFR1c/KLB cell surface receptor complex on iLite FGF21 reporter cells, sequence (P11362 22-822, chain 1 of 2): as the sequence (P11362 22-822, chain 1 of 2) above
# human FGFR1c/KLB cell surface receptor complex on iLite FGF21 reporter cells, sequence (Q86Z14 whole entry, chain 2 of 2): as the sequence (Q86Z14 whole entry, chain 2 of 2) above
binder,measurement,setting,value
B1,koff,[1],4.4e-05 s⁻¹
same,Mean E max (%),[2],105%
same,Mean EC50,[2],0.143 nM
B2,"Mean E max, Luciferase reporter gene assay",[3],72%
same,"Mean EC50, Luciferase reporter gene assay",[3],1.86 nM
B3,"Mean E max, Luciferase reporter gene assay",[3],85%
same,"Mean EC50, Luciferase reporter gene assay",[3],0.789 nM
B4,"Mean E max, Luciferase reporter gene assay",[3],96%
same,"Mean EC50, Luciferase reporter gene assay",[3],0.444 nM
B5,"Mean E max, Luciferase reporter gene assay",[3],77%
same,"Mean EC50, Luciferase reporter gene assay",[3],0.124 nM
B6,"Mean E max, Luciferase reporter gene assay",[3],-1%
B7,"Mean E max, Luciferase reporter gene assay",[3],75%
same,"Mean EC50, Luciferase reporter gene assay",[3],0.51 nM
B8,"Mean E max, Luciferase reporter gene assay",[3],65%
same,"Mean EC50, Luciferase reporter gene assay",[3],2.55 nM
B9,"Mean E max, Luciferase reporter gene assay",[3],96%
same,"Mean EC50, Luciferase reporter gene assay",[3],0.195 nM
B10,"Mean E max, Luciferase reporter gene assay",[3],84%
same,"Mean EC50, Luciferase reporter gene assay",[3],0.308 nM
B11,"Mean E max, Luciferase reporter gene assay",[3],92%
same,"Mean EC50, Luciferase reporter gene assay",[3],0.529 nM
B12,"Mean E max, Luciferase reporter gene assay",[3],85%
same,"Mean EC50, Luciferase reporter gene assay",[3],0.224 nM
B13,"Mean E max, Luciferase reporter gene assay",[3],89%
same,"Mean EC50, Luciferase reporter gene assay",[3],0.107 nM
B14,"Mean E max, Luciferase reporter gene assay",[3],50%
B15,"Mean E max, Luciferase reporter gene assay",[3],67%
same,"Mean EC50, Luciferase reporter gene assay",[3],0.375 nM
B16,"Mean E max, Luciferase reporter gene assay",[3],94%
same,"Mean EC50, Luciferase reporter gene assay",[3],0.256 nM
B17,"Mean E max, Luciferase reporter gene assay",[3],92%
same,"Mean EC50, Luciferase reporter gene assay",[3],0.15 nM
B18,"Mean E max, Luciferase reporter gene assay",[3],83%
same,"Mean EC50, Luciferase reporter gene assay",[3],1.34 nM
B19,"Mean E max, Luciferase reporter gene assay",[3],71%
same,"Mean EC50, Luciferase reporter gene assay",[3],1.47 nM
B20,"Mean E max, Luciferase reporter gene assay",[3],83%
same,"Mean EC50, Luciferase reporter gene assay",[3],0.149 nM
B21,"Mean E max, Luciferase reporter gene assay",[3],97%
same,"Mean EC50, Luciferase reporter gene assay",[3],0.206 nM
B22,"Mean E max, Luciferase reporter gene assay",[3],68%
same,"Mean EC50, Luciferase reporter gene assay",[3],2.09 nM
B23,Mean E max (%),[2],101%
B24,koff,[1],3.7e-05 s⁻¹
same,Mean E max (%),[2],109%
same,Mean EC50,[2],0.125 nM
B25,koff,[1],7.9e-06 s⁻¹
same,Mean E max (%),[2],102%
same,Mean EC50,[2],0.105 nM
B26,Mean E max (%),[2],100%
B27,Mean E max (%),[4],110%
B28,Mean E max (%),[2],104%
B29,Mean E max (%),[4],105%
B30,koff,[1],< 1e-05 s⁻¹
same,Mean E max (%),[2],123%
same,Mean EC50,[2],0.114 nM
B31,Mean E max (%),[4],101%
B32,Mean E max (%),[2],104%
B33,koff,[1],4.8e-05 s⁻¹
same,Mean E max (%),[2],101%
same,Mean EC50,[2],0.163 nM
B34,Mean E max (%),[4],100%
B35,"Mean E max, Luciferase reporter gene assay",[5],97%
B36,"Mean E max, Luciferase reporter gene assay",[5],102%
B37,Mean E max (%),[2],110%
B38,"Mean E max, Luciferase reporter gene assay",[5],104%
B39,Mean E max (%),[4],100%
same,Mean EC50,[4],0.12 nM
B40,Mean E max (%),[2],110%
B41,Mean E max (%),[2],105%
B42,koff,[1],3.6e-05 s⁻¹
same,Mean E max (%),[2],97%
same,Mean EC50,[2],0.109 nM
